Assays:
[1] = target: Med15 activator-binding domain 2 (ABD2; residues 277–368) (yeast) (UniProt P19659); test: ITC + fluorescence polarisation
[2] = target: Med15 1–651 Δ239–272, Δ373–483 (KIX123) (yeast) (UniProt P19659); test: fluorescence polarisation
[3] = target: Med15 158–651 Δ239–272, Δ373–483 (ABD123) (yeast) (UniProt P19659); test: fluorescence polarisation

**Q.** Which Kd [1] does the source give for “Gcn4 central activation domain (cAD; residues 101–134) (from UniProt P03069 101-134) (domain or fragment)” here?
**A.** 150 µM

**Q.** For “Gcn4 tandem activation domains (tAD; residues 1–134) (from UniProt P03069 1-134) (domain or fragment)”, which increase of affinity over ABD123 [2] is on record?
**A.** 30%

**Q.** What about the fold higher affinity than the strongest piecemeal interaction [3] of the same substance?
**A.** 20 fold

From article doi:10.1101/221747
